Assay [1] has as its target T1, Epstein Barr Virus (EBV) glycoprotein gp350 (Epstein-Barr virus, UniProt P03200 1-860).
T1 construct: Viral antigen: immunogen, coated in the ELISAs, immobilised on the CM5 chip in SPR; also called EBV gp350; gp350 antigen
T1 sequence: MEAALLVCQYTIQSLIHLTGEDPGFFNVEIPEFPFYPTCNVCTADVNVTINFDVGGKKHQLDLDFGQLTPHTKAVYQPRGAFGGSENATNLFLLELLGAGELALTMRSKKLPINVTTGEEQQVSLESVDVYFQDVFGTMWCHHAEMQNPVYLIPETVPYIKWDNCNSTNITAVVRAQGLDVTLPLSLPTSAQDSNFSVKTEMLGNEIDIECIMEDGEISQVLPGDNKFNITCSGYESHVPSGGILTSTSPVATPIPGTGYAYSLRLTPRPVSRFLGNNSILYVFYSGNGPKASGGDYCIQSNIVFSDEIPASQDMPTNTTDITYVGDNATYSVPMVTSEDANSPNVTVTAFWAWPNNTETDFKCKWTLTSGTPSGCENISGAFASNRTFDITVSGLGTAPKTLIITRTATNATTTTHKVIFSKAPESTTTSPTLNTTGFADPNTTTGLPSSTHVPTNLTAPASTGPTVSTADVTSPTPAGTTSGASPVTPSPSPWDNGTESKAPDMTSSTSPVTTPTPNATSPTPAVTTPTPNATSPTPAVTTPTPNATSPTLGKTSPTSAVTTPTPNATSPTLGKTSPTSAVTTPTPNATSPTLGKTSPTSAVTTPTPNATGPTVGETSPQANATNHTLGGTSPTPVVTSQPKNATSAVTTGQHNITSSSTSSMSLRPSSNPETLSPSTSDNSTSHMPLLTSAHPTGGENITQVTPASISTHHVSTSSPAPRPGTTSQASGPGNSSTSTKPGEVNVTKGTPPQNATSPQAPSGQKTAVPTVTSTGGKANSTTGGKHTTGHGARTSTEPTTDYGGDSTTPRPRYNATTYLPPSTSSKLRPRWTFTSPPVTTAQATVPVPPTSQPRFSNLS
The assay can be described thus: SPR steady-state affinity plot, 1:1 Langmuir fit (FIG. 11), gp350 immobilised; given as 'affinity constant'; 'affinity constant' in M (FIG. 11).

Assay [2] concerns the target T1, Epstein Barr Virus (EBV) glycoprotein …. The assay can be described thus: SPR (Biacore T100), gp350 immobilised on CM5 chip, antibody as analyte, single cycle kinetics; single cycle kinetics (FIG. 10), 'KD value' in nM.
Assay [3] has the same target. The assay can be described thus: monoclonal phage ELISA on gp350. On the technique in general: An ELISA detects its analyte on a solid surface through an enzyme-linked reagent.
The target is the same in assay [4]. The assay can be described thus: SPR (Biacore T100), single cycle kinetics, gp350 immobilised on CM5 sensor chip, antibody as analyte.
The target is the same in assay [5]. The assay can be described thus: SPR (Biacore T100), steady-state affinity plot, 1:1 Langmuir fit, gp350 immobilised on CM5 sensor chip, antibody as analyte. On the technique in general: In SPR one partner is held on a chip, and binding of the other changes the refractive index at the surface.
Assay [6] shares this target. The assay can be described thus: SPR steady-state affinity plot, 1:1 Langmuir fit (FIG. 11), gp350 immobilised; printed as 'affinity value'; 'affinity value' in M (FIG. 11).
Assay [7] has the same target. The assay can be described thus: SPR (Biacore T100), gp350 immobilised on CM5 chip, antibody as analyte, single cycle kinetics; single cycle kinetics (FIG. 10), 'dissociation value' in nM.
Assay [8] has the same target. The assay can be described thus: SPR (Biacore T100), gp350 immobilised on CM5 chip, antibody as analyte, single cycle kinetics; single cycle kinetics (FIG. 10), dissociation constant in nM.
Assay [9] shares this target. The assay can be described thus: SPR (Biacore T100), gp350 immobilised on CM5 chip, antibody as analyte, single cycle kinetics.
The target is the same in assay [10]. The assay can be described thus: SPR steady-state affinity plot, 1:1 Langmuir fit (FIG. 11), gp350 immobilised; given as 'affinity constant'.

B1: Clone A11 recombinant human IgG1 monoclonal antibody (antibody, V domains shown)
VH: EMQLVQSGAEVKKPGASVKVSCKTSGYNFNHQGISWLRQAPGQGLEWMGWISGFNGKTNYAQKFQGRVTMTADRSTTTAYMELRSLRSDDTAVYYCASGGEQWLVQNFVHWGQGTLLTVSS
VL: ETVLTQEPSLTVSPGGTVTLTCASSTGAVTSGYYPNWFQQKPGQAPRALIYSTSNKHSWTPARFSGSLLGGKAALTLSGVQPEDEAEYYCLLYYGGAWVFGGGTKLTVLG
notes: also called Antibody A11
As usually defined, the Kd is the concentration at which binding is half-saturated. The low end stands for a tighter complex, the high end for a looser complex. For B1, the Kd in assay [1] was 309 nM; in assay [2] it was 0.723 nM.

B2: Clone A11, original phage-displayed antibody fragment (other)
VH: MQLVQSGAEVKKPGASVKVSCKTSGYNFNHQGISWLRQAPGQGLEWMGWISGFNGKTNYAQKFQGRVTMTADRSTTTAYMELRSLRSDDTAVYYCASGGEQWLVQNFVHWGQGTLLTVSS
VL: VLTQEPSLTVSPGGTVTLTCASSTGAVTSGYYPNWFQQKPGQAPRALIYSTSNKHSWTPARFSGSLLGGKAALTLSGVQPEDEAEYYCLLYYGGAWVFGGGTKLTVL
notes: The printed VH and VL begin one or two residues later than those of the other clones, so they may be cut short at the N-terminus; also called CloneA11 (phage clone)
Take B2: the absorbance in assay [3] is over 1 absorbance.

B3: C10 (antibody, V domains shown)
VH: EVQLVQSGAEVKKPGASVKVSCKASGYTFNAYYIHWVRQAPGQGLDWMGWINPNSGGTNYAQNFKGRVTMTRDTSISTAYLELRSLTSDDTAVYFCATERGYTSSFRRDAFDKWGQGTMLTVSS
VL: EAVVTQPPSASGTPGQGVTISCSGSSSNIGSNFVYWYQQLPGTAPKLLIYRNNQRPSGVPDRFSGSKSATSASLAISGLRSEDEADYYCATWDDSLSGYVFGTGTKLTVLG
notes: Full IgG1 form of phage clone C10, expressed in Expi293F cells; It is not in the list MOLECULES; also called Clone C10 recombinant human IgG1 monoclonal antibody; CloneC10
As to B3, the figures for the Kd in assay [4] and in [5] were 11.4 nM and 663 nM, respectively.

B4: Clone B7 recombinant human IgG1 monoclonal antibody (antibody, V domains shown)
VH: EVQLVQSGAEVKKPGASVEVSCKASGYTFNAYYIHWVRQAPGQGLDWMGWINPNSGGTNYAQNFKGRVTMTRDTSISTAYLELRSLTSDDTAVYFCATERGYTSSFRRDAFDKWGQGTMLTVSS
VL: ESVLTQPPSVSAAPGQKVTISCSGSSSNIGNNYVSWYQQLPGTAPKLLIYENNKRPSGIPDRFSGSKSGTSATLGITGLQTGDEAGYYCGTWDSSLSAVVFGGGTKLTVLG
notes: also called Antibody B7
For B4, the Kd in [6] turned out to be 768 nM; in [7], 4.07 nM.

B5: Clone E10, original phage-displayed antibody fragment (other)
VH: EVQLVQSGAEVKKPGASVEVSCKASGYTFNAYYIHWVRQAPGQGLDWMGWINPNSGGTNYAQNFKGRVTMTRDTSISTAYLELRSLTSDDTAVYFCATERGYTSSFRRDAFDKWGQGTLLTVSS
VL: ESVLTQPPSISAAPGQRVTIPCSGSSSDIGNHYVSWYQQLPGAAPKLLIYEDNKRPSGIPDRFSGSKSGTSASLGITGLQTGDEADYYCGTWDNSLRSGFFGGGTKVTVLG
notes: also called CloneE10 (phage clone)
In assay [3], B5 gave an absorbance of over 1 absorbance.

B6: Clone B7, original phage-displayed antibody fragment (other)
VH: EVQLVQSGAEVKKPGASVEVSCKASGYTFNAYYIHWVRQAPGQGLDWMGWINPNSGGTNYAQNFKGRVTMTRDTSISTAYLELRSLTSDDTAVYFCATERGYTSSFRRDAFDKWGQGTMLTVSS
VL: ESVLTQPPSVSAAPGQKVTISCSGSSSNIGNNYVSWYQQLPGTAPKLLIYENNKRPSGIPDRFSGSKSGTSATLGITGLQTGDEAGYYCGTWDSSLSAVVFGGGTKLTVLG
notes: also called CloneB7 (phage clone)
As for B6, the absorbance in assay [3] is over 1 absorbance.

B7: Clone D7 recombinant human IgG1 monoclonal antibody (antibody, V domains shown)
VH: EVQLVQSGAEVKKPGASVEVSCKASGYTFNAYYIHWVRQAPGQGLDWMGWINPNSGGTNYAQNFKGRVTMTRDTSISTAYLELRSLTSDDTAVYFCATERGYTSSFRRDAFDKWGQGTMLTVSS
VL: ESVLTQPPSVSAAPGQKVTMSCSGSTSNIGSNSVSWYQHLPGTAPKLLLFDNAKRPSGIPDRFSGSKSGTSATLGITGLQTGDEADYYCGTWDSGLSVMVFGGGTKLTVLG
Consider B7, for which the values for the Kd in assay [1] and in [8] were 465 nM and 3.86 nM, respectively.

B8: Clone E10 recombinant human IgG1 monoclonal antibody (antibody, V domains shown)
VH: EVQLVQSGAEVKKPGASVEVSCKASGYTFNAYYIHWVRQAPGQGLDWMGWINPNSGGTNYAQNFKGRVTMTRDTSISTAYLELRSLTSDDTAVYFCATERGYTSSFRRDAFDKWGQGTLLTVSS
VL: ESVLTQPPSISAAPGQRVTIPCSGSSSDIGNHYVSWYQQLPGAAPKLLIYEDNKRPSGIPDRFSGSKSGTSASLGITGLQTGDEADYYCGTWDNSLRSGFFGGGTKVTVLG
Turning to B8, the Kd in assay [1] turned out to be 664 nM; in assay [8], 2.23 nM.

B9: Clone D7, original phage-displayed antibody fragment (other)
VH: EVQLVQSGAEVKKPGASVEVSCKASGYTFNAYYIHWVRQAPGQGLDWMGWINPNSGGTNYAQNFKGRVTMTRDTSISTAYLELRSLTSDDTAVYFCATERGYTSSFRRDAFDKWGQGTMLTVSS
VL: ESVLTQPPSVSAAPGQKVTMSCSGSTSNIGSNSVSWYQHLPGTAPKLLLFDNAKRPSGIPDRFSGSKSGTSATLGITGLQTGDEADYYCGTWDSGLSVMVFGGGTKLTVLG
notes: also called CloneD7 (phage clone)
Regarding B9, in assay [3], the absorbance is over 1 absorbance.

B10: Clone C10, original phage-displayed antibody fragment (other)
VH: EVQLVQSGAEVKKPGASVKVSCKASGYTFNAYYIHWVRQAPGQGLDWMGWINPNSGGTNYAQNFKGRVTMTRDTSISTAYLELRSLTSDDTAVYFCATERGYTSSFRRDAFDKWGQGTMLTVSS
VL: EAVVTQPPSASGTPGQGVTISCSGSSSNIGSNFVYWYQQLPGTAPKLLIYRNNQRPSGVPDRFSGSKSATSASLAISGLRSEDEADYYCATWDDSLSGYVFGTGTKLTVLG
notes: also called CloneC10 (phage clone)
Consider B10, for which the absorbance in assay [3] was over 1 absorbance.

B11: Clone B8 recombinant human IgG1 monoclonal antibody (antibody, V domains shown)
VH: EVQLVESAGEVQKPGESLRISCKASGYTFSHYWIGWVRQLPGKGLEWMGIIYPDDSDSRYSPSFQGQVTMSVDKSINTAYLQWNSLKVSDTATYYCVRHWLKRGSNFGFGFDPWGQGTTLTVSS
VL: ESALTQPASVSGSPGQSITISCTGTSSDVGGYNYVSWYQQHPGKAPKLMIYDVSNRPSGVSNRFSGSKSGNTASLTISGLQAEDEADYYCSSYTSSSTLVFGGGTKLTVLG
notes: also called antibody B8
On to B11, for which the Kd came to 33.3 nM in assay [9] and 829 nM in assay [10].

B12: Clone B8, original phage-displayed antibody fragment (other)
VH: EVQLVESAGEVQKPGESLRISCKASGYTFSHYWIGWVRQLPGKGLEWMGIIYPDDSDSRYSPSFQGQVTMSVDKSINTAYLQWNSLKVSDTATYYCVRHWLKRGSNFGFGFDPWGQGTTLTVSS
VL: ESALTQPASVSGSPGQSITISCTGTSSDVGGYNYVSWYQQHPGKAPKLMIYDVSNRPSGVSNRFSGSKSGNTASLTISGLQAEDEADYYCSSYTSSSTLVFGGGTKLTVLG
notes: VH and VL are as translated from the PCR products of the original phage clone; also called CloneB8 (phage clone)
Consider B12, for which the absorbance in [3] was over 1 absorbance.
